What was measured:
[1] = test system: T1, Transactivation domain of FoxM1 (FoxM1 (526-748))
T1 sequence: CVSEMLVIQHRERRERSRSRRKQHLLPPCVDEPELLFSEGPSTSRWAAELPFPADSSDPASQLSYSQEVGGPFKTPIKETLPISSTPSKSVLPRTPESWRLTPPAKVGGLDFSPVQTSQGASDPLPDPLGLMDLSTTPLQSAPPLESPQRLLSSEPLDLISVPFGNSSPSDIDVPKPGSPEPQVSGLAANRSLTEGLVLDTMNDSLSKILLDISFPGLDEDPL

[2] = test system: T2, C-terminal domain of the retinoblastoma protein (Rb (771-928))
T2 sequence: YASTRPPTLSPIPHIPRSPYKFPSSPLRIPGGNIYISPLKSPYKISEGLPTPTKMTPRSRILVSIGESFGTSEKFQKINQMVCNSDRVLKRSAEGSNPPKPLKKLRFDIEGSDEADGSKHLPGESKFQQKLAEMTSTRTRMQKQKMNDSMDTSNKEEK

## Wild-type p27-Cdk4-CycD1 trimeric complex (v) with phosphorylated p27 (wild-type Cdk4)
[1]
  phosphorylation activity (32P-ATP labeling of substrate): had phosphorylation activity toward all substrates
Full-length histone H1
Chain of Full-length histone H1 (chain, as listed by the source): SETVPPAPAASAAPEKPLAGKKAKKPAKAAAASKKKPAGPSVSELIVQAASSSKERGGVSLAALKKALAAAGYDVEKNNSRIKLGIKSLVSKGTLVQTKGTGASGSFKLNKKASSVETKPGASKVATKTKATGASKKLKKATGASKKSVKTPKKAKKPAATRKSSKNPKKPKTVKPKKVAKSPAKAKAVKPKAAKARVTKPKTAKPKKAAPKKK
  phosphorylation activity (32P-ATP labeling of substrate): had phosphorylation activity toward all substrates
[2]
  phosphorylation activity (32P-ATP labeling of substrate): had phosphorylation activity toward all substrates

## Wild-type p27-Cdk4-CycD1 trimeric complex (vi) with phosphorylated p27 (Cdk4 variant having T172E substitution)
[1]
  phosphorylation activity (32P-ATP labeling of substrate): had phosphorylation activity toward all substrates
Full-length histone H1
  phosphorylation activity (32P-ATP labeling of substrate): had phosphorylation activity toward all substrates
[2]
  phosphorylation activity (32P-ATP labeling of substrate): had phosphorylation activity toward all substrates

Source: patent US20210002619
